This test concerns the target T1, His-MyoD (1-320 aa) (UniProt P15172 1-320).
T1 sequence (looked up): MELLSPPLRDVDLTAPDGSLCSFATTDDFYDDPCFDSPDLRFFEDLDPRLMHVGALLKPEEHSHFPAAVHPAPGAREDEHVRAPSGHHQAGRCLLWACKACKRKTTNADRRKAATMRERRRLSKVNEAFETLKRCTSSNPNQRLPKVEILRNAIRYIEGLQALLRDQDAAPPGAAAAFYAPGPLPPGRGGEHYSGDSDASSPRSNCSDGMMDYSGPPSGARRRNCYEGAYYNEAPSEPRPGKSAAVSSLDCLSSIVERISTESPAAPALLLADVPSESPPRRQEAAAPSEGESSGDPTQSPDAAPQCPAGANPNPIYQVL
The test is described as follows: far-Western, overlay or dot blot.

B1: GST-MLP-a (1-194 aa) (natural protein, human, UniProt P50461-1 1-194, looked up)
chain: MPNWGGGAKCGACEKTVYHAEEIQCNGRSFHKTCFHCMACRKALDSTTVAAHESEIYCKVCYGRRYGPKGIGYGQGAGCLSTDTGEHLGLQFQQSPKPARSVTTSNPSKFTAKFGESEKCPRCGKSVYAAEKVMGGGKPWHKTCFRCAICGKSLESTNVTDKDGELYCKVCYAKNFGPTGIGFGGLTQQVEKKE
In the case of B1, the binding result is given as “binds”.

These data come from article PMC4416226 (The FEBS journal, 2014).
